Here are results for seven molecules from patent publication US10647739B2, “Flavonoids O-A-glucosylated on the B cycle, method for the production thereof and uses” (Institut National de la Recherche Agronomique, priority 2014, dated 2020).

Experiment [1] in a line: apigenin glucosylation acceptor reaction with recombinant glucansucrases (microplate screening). In kind it is biochemical. The conditions noted are these: sucrose 146 mM, apigenin 2.5 mM, 3% DMSO, 30° C., 24 h; HPLC-UV 340 nm peak areas. On the procedure: (§1) The enzymatic extracts obtained are used to carry out the flavonoid glucosylation enzymatic screening reactions. The enzymatic activity of each centrifuged cell lysate is evaluated in the microplate format, by final weight after 30 minutes incubation in the presence of a final concentration of 146 mM of sucrose, by assaying the reducing sugars with 3,5-dinitrosalicylic acid (DNS). Finally, after dilution in ultrapure water, the absorbance is read at 540 nm.
(§2) The flavonoid acceptor reactions are then carried out in deep-well microplates, in a volume of 300 μl, at final concentrations of sucrose of 146 mM and of flavonoid of 2.5 mM (apigenin) or 5 mM (naringenin) (initially dissolved in 100% DMSO), and 140 μl of centrifuged cell lysate.
(§3) The final DMSO concentration in the reaction medium is 3% (v/v).
(§4) The incubation is carried out at 30° C. and at 700 rpm. After 24 hours, the enzymes are denatured at 95° C. for 15 minutes. These microplates are stored at −80° C. with a view to rapid evaluation of the flavonoid glucosylation by liquid-phase chromatography coupled to mass spectrometry (HPLC-MS or LC-MS).
(§5) With a view to their analyses by HPLC-MS, the extensively homogenized reaction media are diluted to 1/30th in DMSO. The separation of the flavonoids and of their glucosylated forms is carried out in reverse phase with a ProntoSlL Eurobond® 53×3.0 mm 120-3-C18-AQ column (porosity of 120 Å, particle size of 3 μm, C18 grafting, Bischoff Chromatography, Germany).
(§6) The flavonoid glucosylation efficiency was determined from the following formula: Glucosylation efficiency=(Σ(area of the peak of glucosylated flavonoid(s)))/(Σ(area of the peak of glucosylated flavonoid(s))+area of the peak of residual aglycone flavonoid)×100
The flavonoid glucosylation efficiencies, expressed as a percentage, were calculated from the areas of the peaks of the various products analyzed, as described in example 1, by HPLC with a UV detector (340 nm) after 24 h of reaction.

Experiment [2] is described as follows: naringenin glucosylation acceptor reaction with recombinant glucansucrases (microplate screening). The class given is biochemical. The conditions noted are these: sucrose 146 mM, naringenin 5 mM, 3% DMSO, 30° C., 24 h; HPLC-UV 340 nm peak areas. The procedure:
as §1, §2, §3, §4, §5, §6
The flavonoid glucosylation efficiency was determined from the formula set out in example 2. The flavonoid glucosylation efficiencies, expressed as a percentage, were calculated from the areas of the peaks of the various products analyzed, as described in example 1, by HPLC with a UV detector (λ340 nm), after 24 h of reaction.

B1: V331N: ASNp amylosucrase single mutant (protein, UniProt Q9ZEU2 1-636, looked up, variant V331N)
Amylosucrase: MLTPTQQVGLILQYLKTRILDIYTPEQRAGIEKSEDWRQFSRRMDTHFPKLMNELDSVYGNNEALLPMLEMLLAQAWQSYSQRNSSLKDIDIARENNPDWILSNKQVGGVCYVDLFAGDLKGLKDKIPYFQELGLTYLHLMPLFKCPEGKSDGGYAVSSYRDVNPALGTIGDLREVIAALHEAGISAVVDFIFNHTSNEHEWAQRCAAGDPLFDNFYYIFPDRRMPDQYDRTLREIFPDQHPGGFSQLEDGRWVWTTFNSFQWDLNYSNPWVFRAMAGEMLFLANLGVDILRMDAVAFIWKQMGTSCENLPQAHALIRAFNAVMRIAAPANFFKSEAIVHPDQVVQYIGQDECQIGYNPLQMALLWNTLATREVNLLHQALTYRHNLPEHTAWVNYVRSHDDIGWTFADEDAAYLGISGYDHRQFLNRFFVNRFDGSFARGVPFQYNPSTGDCRVSGTAAALVGLAQDDPHAVDRIKLLYSIALSTGGLPLIYLGDEVGTLNDDDWSQDSNKSDDSRWAHRPRYNEALYAQRNDPSTAAGQIYQGLRHMIAVRQSNPRFDGGRLVTFNTNNKHIIGYIRNNALLAFGNFSEYPQTVTAHTLQAMPFKAHDLIGGKTVSLNQDLTLQPYQVMWLEIA
For the molecule B1, the apigenin glucosylation efficiency in experiment [1] is 1.0%. In experiment [2], the naringenin glucosylation efficiency is 0.0%.

B2: V331S: ASNp amylosucrase single mutant (protein, UniProt Q9ZEU2 1-636, looked up, variant V331S)
Amylosucrase: MLTPTQQVGLILQYLKTRILDIYTPEQRAGIEKSEDWRQFSRRMDTHFPKLMNELDSVYGNNEALLPMLEMLLAQAWQSYSQRNSSLKDIDIARENNPDWILSNKQVGGVCYVDLFAGDLKGLKDKIPYFQELGLTYLHLMPLFKCPEGKSDGGYAVSSYRDVNPALGTIGDLREVIAALHEAGISAVVDFIFNHTSNEHEWAQRCAAGDPLFDNFYYIFPDRRMPDQYDRTLREIFPDQHPGGFSQLEDGRWVWTTFNSFQWDLNYSNPWVFRAMAGEMLFLANLGVDILRMDAVAFIWKQMGTSCENLPQAHALIRAFNAVMRIAAPASFFKSEAIVHPDQVVQYIGQDECQIGYNPLQMALLWNTLATREVNLLHQALTYRHNLPEHTAWVNYVRSHDDIGWTFADEDAAYLGISGYDHRQFLNRFFVNRFDGSFARGVPFQYNPSTGDCRVSGTAAALVGLAQDDPHAVDRIKLLYSIALSTGGLPLIYLGDEVGTLNDDDWSQDSNKSDDSRWAHRPRYNEALYAQRNDPSTAAGQIYQGLRHMIAVRQSNPRFDGGRLVTFNTNNKHIIGYIRNNALLAFGNFSEYPQTVTAHTLQAMPFKAHDLIGGKTVSLNQDLTLQPYQVMWLEIA
For the molecule B2, in experiment [1], the apigenin glucosylation efficiency amounted to 0.4%. Moreover, the naringenin glucosylation efficiency in experiment [2] worked out at 6.7%.

B3: V331T: ASNp amylosucrase single mutant (protein, UniProt Q9ZEU2 1-636, looked up, variant V331T)
Amylosucrase: MLTPTQQVGLILQYLKTRILDIYTPEQRAGIEKSEDWRQFSRRMDTHFPKLMNELDSVYGNNEALLPMLEMLLAQAWQSYSQRNSSLKDIDIARENNPDWILSNKQVGGVCYVDLFAGDLKGLKDKIPYFQELGLTYLHLMPLFKCPEGKSDGGYAVSSYRDVNPALGTIGDLREVIAALHEAGISAVVDFIFNHTSNEHEWAQRCAAGDPLFDNFYYIFPDRRMPDQYDRTLREIFPDQHPGGFSQLEDGRWVWTTFNSFQWDLNYSNPWVFRAMAGEMLFLANLGVDILRMDAVAFIWKQMGTSCENLPQAHALIRAFNAVMRIAAPATFFKSEAIVHPDQVVQYIGQDECQIGYNPLQMALLWNTLATREVNLLHQALTYRHNLPEHTAWVNYVRSHDDIGWTFADEDAAYLGISGYDHRQFLNRFFVNRFDGSFARGVPFQYNPSTGDCRVSGTAAALVGLAQDDPHAVDRIKLLYSIALSTGGLPLIYLGDEVGTLNDDDWSQDSNKSDDSRWAHRPRYNEALYAQRNDPSTAAGQIYQGLRHMIAVRQSNPRFDGGRLVTFNTNNKHIIGYIRNNALLAFGNFSEYPQTVTAHTLQAMPFKAHDLIGGKTVSLNQDLTLQPYQVMWLEIA
In the case of B3, the apigenin glucosylation efficiency in experiment [1] is 0.0%. For the same molecule, the naringenin glucosylation efficiency in experiment [2] turned out to be 7.2%.

B4: V331W: ASNp amylosucrase single mutant (protein, UniProt Q9ZEU2 1-636, looked up, variant V331W)
Amylosucrase: MLTPTQQVGLILQYLKTRILDIYTPEQRAGIEKSEDWRQFSRRMDTHFPKLMNELDSVYGNNEALLPMLEMLLAQAWQSYSQRNSSLKDIDIARENNPDWILSNKQVGGVCYVDLFAGDLKGLKDKIPYFQELGLTYLHLMPLFKCPEGKSDGGYAVSSYRDVNPALGTIGDLREVIAALHEAGISAVVDFIFNHTSNEHEWAQRCAAGDPLFDNFYYIFPDRRMPDQYDRTLREIFPDQHPGGFSQLEDGRWVWTTFNSFQWDLNYSNPWVFRAMAGEMLFLANLGVDILRMDAVAFIWKQMGTSCENLPQAHALIRAFNAVMRIAAPAWFFKSEAIVHPDQVVQYIGQDECQIGYNPLQMALLWNTLATREVNLLHQALTYRHNLPEHTAWVNYVRSHDDIGWTFADEDAAYLGISGYDHRQFLNRFFVNRFDGSFARGVPFQYNPSTGDCRVSGTAAALVGLAQDDPHAVDRIKLLYSIALSTGGLPLIYLGDEVGTLNDDDWSQDSNKSDDSRWAHRPRYNEALYAQRNDPSTAAGQIYQGLRHMIAVRQSNPRFDGGRLVTFNTNNKHIIGYIRNNALLAFGNFSEYPQTVTAHTLQAMPFKAHDLIGGKTVSLNQDLTLQPYQVMWLEIA
For B4, the apigenin glucosylation efficiency in experiment [1] was determined as 0.2%. Besides, the naringenin glucosylation efficiency in experiment [2] stood at 0.0%.

B5: V331P: ASNp amylosucrase single mutant (protein, UniProt Q9ZEU2 1-636, looked up, variant V331P)
Amylosucrase: MLTPTQQVGLILQYLKTRILDIYTPEQRAGIEKSEDWRQFSRRMDTHFPKLMNELDSVYGNNEALLPMLEMLLAQAWQSYSQRNSSLKDIDIARENNPDWILSNKQVGGVCYVDLFAGDLKGLKDKIPYFQELGLTYLHLMPLFKCPEGKSDGGYAVSSYRDVNPALGTIGDLREVIAALHEAGISAVVDFIFNHTSNEHEWAQRCAAGDPLFDNFYYIFPDRRMPDQYDRTLREIFPDQHPGGFSQLEDGRWVWTTFNSFQWDLNYSNPWVFRAMAGEMLFLANLGVDILRMDAVAFIWKQMGTSCENLPQAHALIRAFNAVMRIAAPAPFFKSEAIVHPDQVVQYIGQDECQIGYNPLQMALLWNTLATREVNLLHQALTYRHNLPEHTAWVNYVRSHDDIGWTFADEDAAYLGISGYDHRQFLNRFFVNRFDGSFARGVPFQYNPSTGDCRVSGTAAALVGLAQDDPHAVDRIKLLYSIALSTGGLPLIYLGDEVGTLNDDDWSQDSNKSDDSRWAHRPRYNEALYAQRNDPSTAAGQIYQGLRHMIAVRQSNPRFDGGRLVTFNTNNKHIIGYIRNNALLAFGNFSEYPQTVTAHTLQAMPFKAHDLIGGKTVSLNQDLTLQPYQVMWLEIA
On to B5, for which the apigenin glucosylation efficiency in experiment [1] came out at 0.0%. Also, the naringenin glucosylation efficiency in experiment [2] amounted to 0.0%.

B6: V331R: ASNp amylosucrase single mutant (protein, UniProt Q9ZEU2 1-636, looked up, variant V331R)
Amylosucrase: MLTPTQQVGLILQYLKTRILDIYTPEQRAGIEKSEDWRQFSRRMDTHFPKLMNELDSVYGNNEALLPMLEMLLAQAWQSYSQRNSSLKDIDIARENNPDWILSNKQVGGVCYVDLFAGDLKGLKDKIPYFQELGLTYLHLMPLFKCPEGKSDGGYAVSSYRDVNPALGTIGDLREVIAALHEAGISAVVDFIFNHTSNEHEWAQRCAAGDPLFDNFYYIFPDRRMPDQYDRTLREIFPDQHPGGFSQLEDGRWVWTTFNSFQWDLNYSNPWVFRAMAGEMLFLANLGVDILRMDAVAFIWKQMGTSCENLPQAHALIRAFNAVMRIAAPARFFKSEAIVHPDQVVQYIGQDECQIGYNPLQMALLWNTLATREVNLLHQALTYRHNLPEHTAWVNYVRSHDDIGWTFADEDAAYLGISGYDHRQFLNRFFVNRFDGSFARGVPFQYNPSTGDCRVSGTAAALVGLAQDDPHAVDRIKLLYSIALSTGGLPLIYLGDEVGTLNDDDWSQDSNKSDDSRWAHRPRYNEALYAQRNDPSTAAGQIYQGLRHMIAVRQSNPRFDGGRLVTFNTNNKHIIGYIRNNALLAFGNFSEYPQTVTAHTLQAMPFKAHDLIGGKTVSLNQDLTLQPYQVMWLEIA
Regarding B6, in experiment [1], the apigenin glucosylation efficiency worked out at 0.2%. Also, the naringenin glucosylation efficiency in experiment [2] stood at 0.0%.

B7: V331Q: ASNp amylosucrase single mutant (protein, UniProt Q9ZEU2 1-636, looked up, variant V331Q)
Amylosucrase: MLTPTQQVGLILQYLKTRILDIYTPEQRAGIEKSEDWRQFSRRMDTHFPKLMNELDSVYGNNEALLPMLEMLLAQAWQSYSQRNSSLKDIDIARENNPDWILSNKQVGGVCYVDLFAGDLKGLKDKIPYFQELGLTYLHLMPLFKCPEGKSDGGYAVSSYRDVNPALGTIGDLREVIAALHEAGISAVVDFIFNHTSNEHEWAQRCAAGDPLFDNFYYIFPDRRMPDQYDRTLREIFPDQHPGGFSQLEDGRWVWTTFNSFQWDLNYSNPWVFRAMAGEMLFLANLGVDILRMDAVAFIWKQMGTSCENLPQAHALIRAFNAVMRIAAPAQFFKSEAIVHPDQVVQYIGQDECQIGYNPLQMALLWNTLATREVNLLHQALTYRHNLPEHTAWVNYVRSHDDIGWTFADEDAAYLGISGYDHRQFLNRFFVNRFDGSFARGVPFQYNPSTGDCRVSGTAAALVGLAQDDPHAVDRIKLLYSIALSTGGLPLIYLGDEVGTLNDDDWSQDSNKSDDSRWAHRPRYNEALYAQRNDPSTAAGQIYQGLRHMIAVRQSNPRFDGGRLVTFNTNNKHIIGYIRNNALLAFGNFSEYPQTVTAHTLQAMPFKAHDLIGGKTVSLNQDLTLQPYQVMWLEIA
Turning to B7, the apigenin glucosylation efficiency in experiment [1] is on record as 0.2%. Also, the naringenin glucosylation efficiency in experiment [2] was 6.8%.
